The target in experiment [1] is F1FO-ATP synthase (complex V) (P. falciparum). Briefly: native gel or EMSA; high molecular mass (HMM) complexome profiles: GCT3D experiment repeated on a 3-16% BN gel, only the top part of the gel (Mr app. >1000 kDa) analysed; gametocytes, digitonin.
The target is the same in experiment [2]. Briefly: native gel or EMSA; complexome profiling after method 3 only (nitrogen cavitation without saponin, larger amounts of parasites; samples ABS3D and GCT3D), digitonin, BN-PAGE 4-16%, stacking gel also analysed. (In EMSA bound probe runs differently from free probe, usually more slowly.)
Experiment [3] addresses cytochrome bc1 complex (CIII) (P. falciparum) (UniProt Q7HP03). Briefly: native gel or EMSA; complexome profiling: mitochondria-enriched fractions of mixed ABS parasites or stage V gametocytes (enrichment methods 1-3), solubilised with digitonin or DDM, BN-PAGE on 4-16% gradient gels, gel slices analysed by LC-MS/MS; comigration of iBAQ migration profiles.

Usually stoichiometry N stands for the number of molecules, sites or subunits per partner or assembly.

Take F1FO-ATP synthase (complex V): the stoichiometry N in experiment [1] and in experiment [2] was 2 in each case.

For “cytochrome bc1 complex (CIII), Q7HP03 1-376; Q8I6U9 1-394; Q8IL75 1-355; Q8ILJ5 1-88; Q8IJS2 1-192; Q9NLB3 1-137; C0H4H6 1-96; Q8I2I2 1-484; Q8I3N3 1-534; Q8IBM6 1-79; A0A5K1K9E9 1-163; Q8IB13 1-54”, the stoichiometry N in experiment [3] was found to be 2.

For the origin of these results see PMC8217502.
